The values below come from patent US20120316071A1 (published 2012).

The target of assay [1] is T1, rHuman EGF R/Fc Chimera, CF (R&D Systems Cat#344-ER) (human, UniProt P00533 25-645).
T1 construct: Bought recombinant protein; also called epidermal growth factor receptor; Fc part of the bought chimera not given
The experiment in a line: ECL multispot (MSD), antigen spotted, 10 nM Fab; blank spot of this row 271.

The target of assay [2] is T2, rHuman CD44/Fc Chimera, CF (R&D Systems Cat#3660-CD) (human, UniProt P16070 21-220).
T2 construct: Bought recombinant protein; Fc part of the bought chimera not given
The description is as above.

Assay [3] has as its target T3, rHuman IGF-1 sR, (IGF-1 sR), CF (R&D Systems Cat#391-GR) (human, UniProt P08069 31-932).
T3 construct: Bought recombinant soluble receptor; also called insulin-like growth factor-1 soluble receptor
The description is as above.

The target of assay [4] is T4, rHuman HGF R/c-MET/Fc Chimera, CF (R&D Systems Cat#358-MT/CF) (human, UniProt P08581 25-932).
T4 construct: Bought recombinant protein; also called HGF R/Fc; hepatocyte growth factor receptor; Fc part of the bought chimera not given
The assay is described as above.

Assay [5] deals with T5, rHuman Notch-1/Fc Chimera, CF (R&D Systems Cat#3647-TK) (human, UniProt P46531 19-526).
T5 construct: Bought recombinant protein; Fc part of the bought chimera not given
The assay is described as above.

Assay [6] has as its target T6, rHuman ErbB2/Fc Chimera, CF (R&D Systems Cat#1129-ER) (human, UniProt P04626 23-652).
T6 construct: Bought recombinant protein; also called human epidermal growth factor 2 receptor; Fc part of the bought chimera not given
The assay is described as above.

In assay [7] the target is T7, rHuman Erythropoietin R/Fc Chimera, CF (R&D Systems Cat#963-ER) (human, UniProt P19235 25-250).
T7 construct: Bought recombinant protein; also called EPO R; EPO R/Fc; Fc part of the bought chimera not given
T7 sequence (looked up): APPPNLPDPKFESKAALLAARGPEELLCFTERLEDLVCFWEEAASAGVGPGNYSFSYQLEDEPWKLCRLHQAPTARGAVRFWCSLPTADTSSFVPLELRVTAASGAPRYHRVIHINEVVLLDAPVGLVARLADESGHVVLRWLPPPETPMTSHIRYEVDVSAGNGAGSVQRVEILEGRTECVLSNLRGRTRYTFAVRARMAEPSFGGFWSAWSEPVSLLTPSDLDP
Described as above.

For assay [8], the target named is T8, rHuman P-Cadherin/Fc Chimera, CF (R&D Systems Cat#861-PC) (human, UniProt P22223 108-654).
T8 construct: Bought recombinant protein; Fc part of the bought chimera not given
The assay is described as above.

The target in assay [9] is T1, rHuman EGF R/Fc Chimera, CF (R&D …). The experiment in a line: ECL multispot (MSD), antigen spotted, 10 nM Fab; blank spot of this row 204.
Assay [10] deals with T2, rHuman CD44/Fc Chimera, CF (R&D Systems …). The description is as above.
Assay [11] concerns the target T3, rHuman IGF-1 sR, (IGF-1 sR), CF (R&D …). Described as above.
Assay [12] concerns the target T4, rHuman HGF R/c-MET/Fc Chimera, CF (R&D …). The description is as above.
In assay [13] the target is T5, rHuman Notch-1/Fc Chimera, CF (R&D …). The description is as above.
Assay [14] concerns the target T6, rHuman ErbB2/Fc Chimera, CF (R&D …). The assay is described as above.
For assay [15], the target named is T7, rHuman Erythropoietin R/Fc Chimera, CF …. The description is as above.
In assay [16] the target is T8, rHuman P-Cadherin/Fc Chimera, CF (R&D …). Described as above.
Assay [17] deals with T1, rHuman EGF R/Fc Chimera, CF (R&D …). Kind of assay: ECL multispot (MSD), antigen spotted, 10 nM Fab; blank spot of this row 239.
Assay [18] addresses T2, rHuman CD44/Fc Chimera, CF (R&D Systems …). The description is as above.
The target of assay [19] is T3, rHuman IGF-1 sR, (IGF-1 sR), CF (R&D …). Described as above.
In assay [20] the target is T4, rHuman HGF R/c-MET/Fc Chimera, CF (R&D …). Described as above.
Assay [21] addresses T5, rHuman Notch-1/Fc Chimera, CF (R&D …). The assay is described as above.
Assay [22] addresses T6, rHuman ErbB2/Fc Chimera, CF (R&D …). Described as above.
The target in assay [23] is T7, rHuman Erythropoietin R/Fc Chimera, CF …. The description is as above.
The target of assay [24] is T8, rHuman P-Cadherin/Fc Chimera, CF (R&D …). The description is as above.
The target of assay [25] is T1, rHuman EGF R/Fc Chimera, CF (R&D …). Kind of assay: ECL multispot (MSD), antigen spotted, 10 nM Fab; blank spot of this row 248.
Assay [26] addresses T2, rHuman CD44/Fc Chimera, CF (R&D Systems …). The assay is described as above.
Assay [27] deals with T3, rHuman IGF-1 sR, (IGF-1 sR), CF (R&D …). The description is as above.
Assay [28] has as its target T4, rHuman HGF R/c-MET/Fc Chimera, CF (R&D …). Described as above.
For assay [29], the target named is T5, rHuman Notch-1/Fc Chimera, CF (R&D …). The assay is described as above.
Assay [30] has as its target T6, rHuman ErbB2/Fc Chimera, CF (R&D …). The assay is described as above.
Assay [31] has as its target T7, rHuman Erythropoietin R/Fc Chimera, CF …. The assay is described as above.
Assay [32] addresses T8, rHuman P-Cadherin/Fc Chimera, CF (R&D …). The assay is described as above.
The target in assay [33] is T9, rHuman Erythropoietin R/Fc Chimera, CF (R&D Systems Cat#963-ER) (human, UniProt P19235 25-250).
T9 construct: Bought Fc chimera; also called Epo R/Fc chimera; EPO R/Fc; Fc part of the bought chimera not given
T9 sequence (looked up): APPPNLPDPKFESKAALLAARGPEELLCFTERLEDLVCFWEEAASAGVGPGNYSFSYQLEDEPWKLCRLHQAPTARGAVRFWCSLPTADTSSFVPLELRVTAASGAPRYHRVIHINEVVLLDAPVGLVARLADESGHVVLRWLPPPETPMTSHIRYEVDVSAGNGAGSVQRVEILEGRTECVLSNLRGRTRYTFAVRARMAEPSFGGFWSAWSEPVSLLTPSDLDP
The experiment in a line: Multispot ECL (MSD) binding screen, antigen spotted on plate; hit = signal/blank >= 4.

T4 sequence (P08581 25-932, change not shown): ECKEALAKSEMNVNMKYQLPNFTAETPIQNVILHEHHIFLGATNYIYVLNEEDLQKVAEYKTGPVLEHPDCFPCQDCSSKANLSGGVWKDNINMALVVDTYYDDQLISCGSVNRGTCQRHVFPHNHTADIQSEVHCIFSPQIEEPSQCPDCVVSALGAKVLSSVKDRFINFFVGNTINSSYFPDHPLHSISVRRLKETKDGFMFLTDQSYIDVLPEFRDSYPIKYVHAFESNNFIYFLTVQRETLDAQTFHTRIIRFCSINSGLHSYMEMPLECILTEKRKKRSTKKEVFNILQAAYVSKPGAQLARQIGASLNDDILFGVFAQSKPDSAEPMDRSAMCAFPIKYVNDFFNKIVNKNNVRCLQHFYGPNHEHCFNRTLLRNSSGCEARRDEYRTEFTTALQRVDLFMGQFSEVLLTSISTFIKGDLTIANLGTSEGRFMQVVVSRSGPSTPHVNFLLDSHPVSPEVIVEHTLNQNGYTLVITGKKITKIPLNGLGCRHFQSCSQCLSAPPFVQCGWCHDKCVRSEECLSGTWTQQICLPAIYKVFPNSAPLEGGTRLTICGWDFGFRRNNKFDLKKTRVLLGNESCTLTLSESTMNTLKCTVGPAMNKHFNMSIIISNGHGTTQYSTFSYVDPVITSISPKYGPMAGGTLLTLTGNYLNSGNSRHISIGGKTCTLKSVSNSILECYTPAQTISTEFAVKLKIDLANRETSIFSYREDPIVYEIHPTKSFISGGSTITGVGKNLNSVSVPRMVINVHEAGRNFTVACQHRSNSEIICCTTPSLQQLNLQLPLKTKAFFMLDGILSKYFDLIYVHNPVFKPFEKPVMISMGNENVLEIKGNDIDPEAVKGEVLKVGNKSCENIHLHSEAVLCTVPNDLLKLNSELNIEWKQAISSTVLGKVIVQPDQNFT

B1: Fab VH1-46_IGHD6-6*01_IGHJ1*01 S102A/S103P/S104F (APF) & L6_IGKJ1*01 (Fab, V domains shown)
VH: QVQLVQSGAEVKKPGASVKVSCKASGYTFTSYYMHWVRQAPGQGLEWMGIINPSGGSTSYAQKFQGRVTMTRDTSTSTVYMELSSLRSEDTAVYYCAREEYAPFSAEYFQHWGQGTLVTVSS
VL: not shown
notes: Tested as Fab made in E. coli; The heavy chain was cloned in Plasmid A (CH1 constant region, His6 and Flag tags); The kappa light chain was cloned in Plasmid C (kappa CL); also called APF triple mutant; H:APF & L:wt
Turning to B1, the ECL signal in assay [1] turned out to be 272; in assay [2], 189; in [3], 241; in assay [4], 306; in assay [5] it was 257; in [6], 330. Also, the ECL signal in assay [7] came out at 304; in assay [8], 297; in assay [9] it was 237; in assay [10] it was 96; in assay [11], 197; in [12] it was 272. Further, the ECL signal in assay [13] came to 334; in [14], 157; in assay [15], 329; in assay [16] it was 208; in [17], 216; in [18], 236. The ECL signal in [19] stood at 174; in assay [20], 171; in assay [21], 130; in assay [22] it was 340; in [23] it was 285; in assay [24], 256.

B2: Fab VH1-46_IGHD6-6*01_IGHJ1*01 S102A/S103P/S104F G55D & L6_IGKJ1*01 (Fab, V domains shown)
VH: QVQLVQSGAEVKKPGASVKVSCKASGYTFTSYYMHWVRQAPGQGLEWMGIINPSDGSTSYAQKFQGRVTMTRDTSTSTVYMELSSLRSEDTAVYYCAREEYAPFSAEYFQHWGQGTLVTVSS
VL: not shown
notes: Tested as Fab (CH1 with His6 and Flag tags, kappa CL); also called APF G55D
In the case of B2, the ECL signal came out at 272 in [25]; 173 in assay [26]; 191 in assay [27]; 268 in assay [28]; 302 in assay [29]; 302 in [30]. Also, the results for the ECL signal in assay [31] and in [32] were 329 and 243, respectively.

B3: Fab VH1-46_IGHD7-27*01_IGHJ2*01 & A27_IGKJ1*01 (Fab, V domains shown)
VH: QVQLVQSGAEVKKPGASVKVSCKASGYTFTSYYMHWVRQAPGQGLEWMGIINPSGGSTSYAQKFQGRVTMTRDTSTSTVYMELSSLRSEDTAVYYCARANWGYWYFDLWGRGTLVTVSS
VL: not shown
notes: Fab; expressed in E. coli from Plasmid A (CH1, His6 and Flag tags) and Plasmid C (kappa CL)
For B3, the binding result in [33] was “binds”.
